We go through one substance from paper PMC7005942.

The series concerns the target HIV-1 integrase wild type (HIV-1) (UniProt P12497). Description: filter binding. The settings on record: Filter binding: 20 mM Tris-HCl pH 7.5, 200 mM NaCl, 6 mM MgCl2, 1 mM DTT, 0.1 mg/mL BSA, room temperature, 10 min.

As to HIV-1 TAR (1-57), the Kd (as a rule, the constant that tells how readily two partners part at equilibrium) was more than 5 µM.
